Article doi:10.1101/2020.10.19.345710 (bioRxiv, 2020)

Target: the molecule itself
Assay: thioflavin T fluorescence

Protein	binding result
FUS LC, low complexity domain of Fused in sarcoma (FUS), residues 1-163 (domain or fragment, UniProt P35637 1-163, looked up) MASNDYTQQATQSYGAYPTQPGQGYSQQSSQPYGQQSYSGYSQSTDTSGYGQSSYSSYGQSQNTGYGTQSTPQGYGSTGGYGSSQSSQSSYGQQSSYPGYGQQPAPSSTSGSYGSSSQSSSYGQPQSGSYSQQPSYGGQQQSYGQQQSYNPPQGYGQQNQYNS	binds
FUS LC G156E, low complexity domain of FUS (residues 1-163) with the pathogenic G156E mutation (domain or fragment, UniProt P35637 1-163, looked up) MASNDYTQQATQSYGAYPTQPGQGYSQQSSQPYGQQSYSGYSQSTDTSGYGQSSYSSYGQSQNTGYGTQSTPQGYGSTGGYGSSQSSQSSYGQQSSYPGYGQQPAPSSTSGSYGSSSQSSSYGQPQSGSYSQQPSYGGQQQSYGQQQSYNPPQGYEQQNQYNS	binds
